{"source": "patent US20120094271A1", "about": "“SELECTING FOR COOPERATIVELY INTERACTING MOLECULES” (Arizona Board of Regents for and on behalf of Arizona State …, priority 2008, published 2012)", "key": {"[1]": {"test": "isoelectric point (pI) of peptides", "format": "physicochemical"}, "[2]": {"molecular_target": "Beta-galactosidase (β-gal) (Escherichia coli, UniProt P00722)", "sequence (P00722 2-1024)": "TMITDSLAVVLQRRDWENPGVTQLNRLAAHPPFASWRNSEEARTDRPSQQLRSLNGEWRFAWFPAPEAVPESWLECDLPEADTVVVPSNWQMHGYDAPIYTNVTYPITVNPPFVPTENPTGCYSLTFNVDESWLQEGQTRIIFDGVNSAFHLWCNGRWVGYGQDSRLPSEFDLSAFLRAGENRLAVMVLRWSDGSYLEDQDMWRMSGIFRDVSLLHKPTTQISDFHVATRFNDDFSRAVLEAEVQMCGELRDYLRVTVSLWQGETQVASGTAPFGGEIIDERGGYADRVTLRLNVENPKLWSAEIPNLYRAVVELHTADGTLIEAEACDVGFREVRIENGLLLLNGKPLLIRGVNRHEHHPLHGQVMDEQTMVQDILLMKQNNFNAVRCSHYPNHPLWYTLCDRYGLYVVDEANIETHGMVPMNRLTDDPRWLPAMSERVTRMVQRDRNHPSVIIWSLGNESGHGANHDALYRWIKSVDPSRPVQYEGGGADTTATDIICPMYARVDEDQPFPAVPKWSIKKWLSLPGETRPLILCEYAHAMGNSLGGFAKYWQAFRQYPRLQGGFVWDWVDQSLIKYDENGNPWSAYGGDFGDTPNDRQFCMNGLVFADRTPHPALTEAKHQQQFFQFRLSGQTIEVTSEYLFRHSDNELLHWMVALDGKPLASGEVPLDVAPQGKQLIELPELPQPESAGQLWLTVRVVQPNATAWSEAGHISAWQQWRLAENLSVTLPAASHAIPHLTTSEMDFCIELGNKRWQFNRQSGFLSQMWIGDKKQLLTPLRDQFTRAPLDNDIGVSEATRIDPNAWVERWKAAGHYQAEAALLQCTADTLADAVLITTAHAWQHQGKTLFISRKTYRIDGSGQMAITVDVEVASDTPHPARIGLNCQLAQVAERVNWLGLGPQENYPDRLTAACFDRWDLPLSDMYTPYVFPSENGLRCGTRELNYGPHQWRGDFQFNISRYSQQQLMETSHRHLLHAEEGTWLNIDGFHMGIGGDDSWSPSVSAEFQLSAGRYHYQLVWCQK", "conditions": "~12 uM peptide, ~3 nM β-gal", "method": "(§1) Beta-galactosidase (β-gal) (˜3 nM, Alexa647 labeled, the target) was preincubated with a solution containing ˜12 uM of the peptide “[…]” (the ligand). […] The complex between β-gal and the peptide complex was incubated with a […] 10,000 random sequence peptides (the “test molecules”) bound to the surface of a glass slide in an ordered fashion. The incubation took place for two hours and the binding pattern of this was compared to the binding pattern using only the labeled enzyme and no ligand."}, "β-gal enzyme": {"molecular_target": "β-gal enzyme (Escherichia coli, UniProt P00722)", "sequence (P00722 2-1024)": "as above", "conditions": "~12 uM peptide", "method": "as §1"}}, "data": [{"sequence": "RVFKRYKRWLHVSRYYFGSC", "values": [{"measurement": "isoelectric point (pI)", "setting": "[1]", "value": 10.6}, {"measurement": "β-gal activity inhibited", "setting": "[2]", "value": 95, "unit": "%"}, {"measurement": "binding to the β-gal enzyme", "setting": "β-gal enzyme", "value": "binds strongly"}]}]}
